# Reference: the DeepSol protein solubility set
# Assay: soluble on expression in E. coli; label from the status in PepcDB or PDB records
row,Sequence,soluble on expression in E. coli
1,MGSDKIHHHHHHEIFSEITTDNYYQNSNNIYAALVNNYAKAFSTGWSDARYFLQEVTADQLMIPTRGKHGYNGGEYVRLHEHKWTVEENFVYNGWAAPFQGIALCNNTLSDFENLDFSTFKLTEETKNEYIAELRALRVWNYMFLIDFFRHVPIVTDIEEVKAQSTPLEVFNFMESELLAILPDLPKNRGVSRFDQAGVASILVRLYLNAEKWIGISKYDECEQMAQAILDGKYGEYSIDPDYRGPFRSGINGYRSKENIMEFAIKKNYFEASWLYNMWMHYQDRYSLDNDWQGWNGGNLAPSRDLYGNLYQDKLGMPFEKFPDGDIRKKAFRVISNDGDYEGFFLMGTQYKFDYEKGYGFTDEVITGTEEYNGKPLVYVDQVGRFSEGETGLAKGSHVIYGEENTGYRLIKFPWLPQSKDLFQMNSIPEIRLAEIYYSLAECKYRSGDKIGAARLLDVVRKRYYKAEDWSKFSYESNISKLTDDEFVDELGREFIGERHRRIDLIRWNRFSEGAWWDKTPDATNQDVFPIPYRALNANPLLKQTTAGF,not soluble
2,MGSDKIHHHHHHENLYFQGLLPKYNILTEDQVQKIHENTMKILEEIGIEFEYEPALEVFRREGQKVEGKRVYLTREFVESKLKSAPAEFTLHARNPENNVVIGGDNIVFMPGYGAPFIYELDGSRRKTTLQDYENFAKLAGASKNMHLSGGTMAEPQDIPDGVRHLQMLYSSIKNSDKCFMGSAEGKERAEDSVEIAAILFGGKDVIKEKPVLVSLINSLTPLKYDERMLGALMAYAEAGQAVIIASLVMAGSTGPASLAGTLSLQNAEVLAGISLAQSINPGTPVIYGSTSALSDMRSGSLSIGSPECALFISASAQLARFYGVPSRSGGGLNDSKTVDAQAGYESMMTLMAANLTGVNFVLHTAGILQYFMAMSYEKFIMDDEIAGMLLHYMKGYTFDEDGMAFDVIEKVGPGGHFLTQKHTRKNHKREFYTPTLSDRSAYDTWAKEKLETKQRAHARWQQILANYVPPALDPEIDAKLQAFIAQRGKEVGEE,soluble
3,MGSDKIHHHHHHENLYFQGMLIEIPNVFSKQEVSHLREQLDARRWIDGNQTSGAMATTRKRNQQLDKDDPVAVALGQQIMDRLLAHPQFVSAALPLQFYPPLFNRYQGGETFGYHIDNAIRSTPDGMIRTDLSATLFLSEPENYQGGELVIQDTYGQQSIKLSAGSLVLYPSSSLHQVTPVLSGERTAAFMWLQSMVRDEGQRRLLFQLDQSIQSLTAQTAAEQELFNLSGVYHNLLRRWSEL,soluble
4,MGSDKIHHHHHHERHEFIIEVVGNAYLDDVMDWYQPSYGDYLVQAHPVIVLYYPDESYAYYERATFYEQYNDFVAAAGVIVDTADLKNDLGRIWNSYYPIYDVDVWWQADREEWQARVKGLTRDVNITTFFVVTFNGRDNYCEVVDIKDEGEIYLDNNGVYHLGPLSGVDGFAAFVQENPSRLTLESNTKILGAEVRWIK,not soluble
5,MGSDKIHHHHHHGCDREEDERFPSGHHDPIEGDGEMVPINVKVDGVDEFPGGAVTRSGEILTKIVQPLDSTYDSGYDVETTIESLLPVNPVQTRGNMANMQFRVVAYKNNSITAANYAGTAVYSTNASGIASIVANTATPAAVSGQWVLRPGTYAFVFYSYGTNSAPAALSGNWSTTVTHNQDFMLCQKTGVDVKADASGQCLLSGISFSRQCAQLQLCVVAKEFNNNTVQQCAATISGLSNSPVTWNASQTTLPVTGTSGTLNVAWTNPNATTVNSNVYKVLPQTNRTLTIKFTTLKIGNGQMNNAITVSATSRIFSAAGNYKITVSIVPNYISVRSYKWARGNLYKSGSNFYFEASQSNYHGGATEGGFIGWNTLDIGVGKYNSGNYSTANDPCYQVVPPGTWETPSDGQLQDLINAGVTYSGSPKGFWFGGNNGVFLLALGSRDQSSTTINNTISKNGAWAFYWSRTPSGKTAKGLNAMQGNNSAGIDNSWARPDGRTIRCVKR,not soluble
6,MGSDKIHHHHHHGIGVNSSNRLGIDNFEFIRVLGKGSFGKVMLARVKETGDLYAVKVLKKDVILQDDDVECTMTEKRILSLARNHPFLTQLFCCFQTPDRLFFVMEFVNGGDLMFHIQKSRRFDEARARFYAAEIISALMFLHDKGIIYRDLKLDNVLLDHEGHCKLADFGMCKEGICNGVTTATFCGTPDYIAPEILQEMLYGPAVDWWAMGVLLYEMLCGHAPFEAENEDDLFEAILNDEVVYPTWLHEDATGILKSFMTKNPTMRLGSLTQGGEHAILRHPFFKEIDWAQLNHRQIEPPFRPRIKSREDVSNFDPDFIKEEPVLTPIDEGHLPMINQDEFRNFSYVSPELQP,not soluble
7,MGSDKIHHHHHHGIKNGLKEEPKINVGIKGGFNSSMYFTSRLELDGERMEDVQNNYKVGYFAAMFFRVHMKRHFIQPEIMYNIYKGEIAFNKNQNKENTLPELAKLNSTIHSLELPILYGYSFVKSRPYGMALFIGPKLEYVWKHKTSEEFEGFGYSGIKEELHPINISSVIGLGVNIANIFFDFRYEIGLTNISKSIIYKKDTDGIMSQEKGIFINRHRNVLSFSLGVIF,not soluble
8,MGSDKIHHHHHHIANVETSSRNAIGFNVLSNAAETRATPTTNTNLKNTDFDVFAFTADGTAFMGKNDTEFEHDGVKIVYKNGKWDYDNASDLRYWPTEALDFYAFNPGTVSEDMMAFYSWEATKDVQKISYTCMDEYGSGTTHANYDVMYAMAKGQTKDMNNGIVKFNFKHILSQVVFKAKTQYDNMQVDIDVIKIHNFKFAGAFTLPAAADGTGSWSSSDLAFPHAFTVVKNANITVNSNTEATDITTNTPMLNIPQELTAWKVSETATKSKLEADNAKQCYLEIACKIRQSGAYLLGSASEYKTIYVPFGDTWEQGKRHIYTLIFGGGYDDQGEAVLNPIQFDAETTGWVDADKDVNVQP,not soluble
9,MGSDKIHHHHHHIEAQIKEDLDLIRNGTSLLSLIPNFGMEAVTPWLDEFERGLMYELDFKREIKNIAFFRDMYRDRDDVKIPRPYSRLSTEDVIVMDYTPSVPIVRPFKAERLINMFLEQLLYEGVIHGDLHTGNIGLDSKTGSLVLYDFGNIINITSQYKTAIRDFVYGVQTGNVDAVMDNMVKMGMNVRDREVTRIFVKQYFDYLQTLDLTSFTINSPEIREKASKVPVELDSTTLTILRTYSLLEGLAKELDPSFSYARIINKNVELLFLDLEYIMYRIQKDTSS,not soluble
10,MGSDKIHHHHHHIRMKINLGVVGAGIASRELHLPALRKLSDLFTVVAVNSRTRKKAEEFAGIVGGDVRVFDSYEEMLSSDSVDAVVLAVPISLNPKMIIAARRANKPVICEKPVAASVKEAVPLLRLPGSSPVYIAENYRHIEVYEKAAELLKEGRIGIPLAFSWLKWVDFGQDNKYVQTKWRQTPEHVGGFISDGGVHDVAALRKTLGDVEEVSGFTKKSLDYLGAENCVVFNMTLENGVIGNYSVVYGAASPLNRFEIVGTDGLMLVDKDGATIEIFAADREKIFVNKTDGFIEEFRDFYNVVEGEKNSLGTVGEALLDLATIEAGLVSAVEKRVVAVDSLLEES,not soluble
11,MGSDKIHHHHHHKAPLDEIADDSFWSDETLVKYYVNDLYSEISVDGLQLQENRSDNSVSAQRDKYRASWFKFNYDMVSASDPQDDDVWEDYYVKVRKCNRFFERIGTSTIEESEKSRLTGEVHFLRAMFYFEMVKRYGGVILLDKVLTMEDNWEIPRSSEKECYDFILEDLKKATEMLPASYGSREKGRATKGAAYALKSRVELYDKRYEDVIKSCAEVYKLGYELVDGTTPEKYRSIWWTTNKDNKEIIFDVQYKSPDVYNNMMVCNMVTYINDKYGDRGWGGLGPTQELIDAFEMADGTPATQYSQAPADQVFDINTCGIYEGREPRFYANIVFHGSQIFFNADKGAVTVDRYLMDTPDKGDGSLTGYNVWKWIDYDNYNYPYAGAGSPDFSTNWIILRYAEIYLNDAEARLETGDVEGARKAVNMIRQRVGLPDLTESDPEKLRELIRKERRIEFAFEEQRFYDVRRWKIGPETQTTLHGVRFVSPTEFKVTKTDIRTWNDRLYLTPVPHDEIVRSSVLKQNLGY,not soluble
12,MGSDKIHHHHHHKDEIKHLVSEWQGKEIRFPKDMVFARFATDTVDFTLPKSPHKVLVFVDSIGCTSCKLQLHRWKELIQYTDSITQGTVPFLFFFQSDDKKEIRYLLKKDNFDKPICMDQSDRLNELNHFPADGRFQTFLLDKDNKVVVIGNPIHNPNIRELYLKEITGKQPASQIQTTVKVEEASIQLGTIQMGESKEAVFRLTNTGNNPLVILDAATTCGCARPSFDKHPAKPGEILQVRVIMTPKDKGVFDETISVKCNTNQLIKLNIRGMAQ,not soluble
